Measurements from patent US7230094B2, “Neutral sphingomyelinase antisense ribozyme and uses thereof” (priority 2001, dated 2007).

Columns and labels:
Format in all cases: cell-based, human
A-SMase = experiment: Acid sphingomyelinase activity in cell extracts, [14C]sphingomyelin substrate; details: for Acid SMase activity: MG-63 WT 2.7, L-3 LacZ/sham 2.3, average of two batches; for Reduction in A-SMase activity: ribozyme-transfected cells compared to sham-transfected and untransfected controls
Protocol: Confluent culture of cells were harvested, washed, and pellets lysed in buffer containing 0.1% Triton™ X-100, 25 mM Tris (pH 7.4) buffer, 5 mM EDTA, 1 mM phenylmethylsulfonylfluoride and 2 μg each of chymostatin, leupeptin, antipain, and pepstatin A. The activity levels of acid and neutral sphingomyelinase were measured in cell extracts (100 μg protein) in duplicate as described previously employing […] as the substrate.
Activities of A-SMase and N-SMase were also measured according to methods described in Chatterjee, S. and Ghosh, N. (1996) Glycobiology 6:303–311, incorporated herein by reference, with minor modifications. In brief, 5×10^6 MG63 cells were scraped from the culture plates, washed with PBS, and disrupted by repeated passage through a 25-gauge needle. Nuclei and cell debris were pelleted at 800×g for 5 min. Supernatant fluid was collected, and the protein concentration was measured using the Bio-Rad (Hercules, Calif.) protein detection kit. To measure SMase activity, 50 μg of protein was incubated for 90 min (the reaction was linear for up to 120 min) at 37° C. in buffer (200 μl final volume) containing 250 mM sodium acetate and 1 mM EDTA, pH 5.0, for A-SMase or 250 mM Tris-Cl, pH 7.4, with or without 6 mM MgCl2 for N-SMase, and 0.75 μl of [methyl-^14C]sphingomyelin (SM) (0.2 mCi/ml; 56.6 mCi/mmol). Radioactive phosphocholine produced from [^14C]SM was extracted with 800 μl of chloroform-methanol (2:1, vol/vol) and 100 μl of H2O. [^14C]phosphocholine in the aqueous phase was measured by scintillation counting.

MG-63 cells = experiment: Cell viability by trypan blue staining; details: ribozyme transfected cells, 24 hours, trypan blue, FIG. 8
Protocol: FIG. 8 depicts the effect of TNF-α on viability of wild type, ribozyme transfected and wild type/mock transfected cells. Cells ([…]) were seeded in 96 well sterile plastic trays. Upon confluence medium was replaced with serum free minimum essential medium and TNF-α (20 ng/ml). After incubation for 24 h at 37° C., viability of cells were determined by Trypan blue staining. The results represent ±S.D. of three experiments.
The population of viable cells was determined using trypan blue staining. Cells (10^4) were seeded in 96 well plates. Twenty-four hours later, the media was replaced with serum-free MEM, and TNF-α in various concentrations was added. After incubation for 24 hours at 37° C., the cells were trypsinized, and viable cells were counted after staining with trypan blue. Values were compared to the original cell count (10^4) and expressed as a percentage.

N-SMase [1] = experiment: Western immunoblot and densitometric analysis of N-SMase; details: mutant CC cells vs WT, FIG. 3
Protocol: FIG. 3 depicts a western immunoblot assay and densitometric analysis of N-SMase. About 10 μg of partially purified N-SMase preparations from WT (MG-63) and mutant (CC) cells were solubilized and subjected to 7.5% polyacrylamide SDS gel electrophoresis. The proteins were then transferred to PVDF membranes and subjected to a western immunoblot assay employing an N-SMase antibody or β-actin antibody (control). The immunoreactive protein bands were then subjected to densitometric scanning.
Western immunoblot assay and densitometric analysis was used to quantify the level of N-SMase in WT and CC cells. About 10 μg of partially purified N-SMase preparations from WT (MG-63) and mutant (CC) cells were solubilized and subjected to 7.5% polyacrylamide SDS gel electrophoresis. The proteins were then transferred to PVDF membranes and subjected to a western immunoblot assay employing an N-SMase antibody. The immunoreactive protein bands were then subjected to densitometric scanning.

N-SMase [2] = experiment: TNF-α and Fas ligand induced N-SMase activity in WT and mutant cells; details: for Basal activity of N-SMase: unstimulated CC cells, 2.7±0.1 in MG63 control cells, ±S.D., N=3
Protocol: FIGS. 4A–4B depict the effects of incubation with TNF-α (FIG. 4A) and Fas ligand (FIG. 4B) over time on the activity of N-SMase in mutant and WT cells. Confluent cultures of WT (MG-63) and mutant (CC) cells were incubated with serum free medium with or without TNF-α ([…]) or Fas ligand (1 ng/ml). At the indicated intervals, cells were harvested, centrifuged, and lysed in buffer containing 0.1% Triton™ X-100, 25 mM Tris (pH 7.4), 5 mM EDTA, 1 mM phenylmethylsulfonyl fluoride (PMSF), and 2 μg each of chymostatin, leupeptin, antipain, and pepstatin A. 100 μl of a reaction mixture containing 50 mM Tris (pH 7.4), 5 mM MgCl2, 0.05% Triton™ X-100, 5 mM dithiothreitol (DTT) and 10 nmol [^14C] sphingomyelin (100,000 cpm) was added to 5–10 μl of cell lysate (100 μg protein). The basal activity of N-SMase was 2.7±0.1 nmol/mg protein/hr in MG63 cells and 0.67±0.1 nmol/mg protein/hr in CC cells. These levels were defined as 100% activity. Error bars indicate ±S.D. (N=3).
Tumor necrosis factor alpha (TNF-α) is known to induce programmed cell death through stimulation of sphingomyelinase activity and generation of ceramide. This example describes the ability of the ribozyme directed against N-SMase to inhibit this pathway. The effects of incubation with TNF-α and Fas ligand over time on the activity of N-SMase in mutant and WT cells are shown in FIGS. 4A and 4B, respectively. Confluent cultures of WT (MG-63) and mutant (CC) cells were incubated with serum free medium with or without TNF-α ([…]) or Fas ligand (1 ng/ml), and the activity of N-SMase was determined by measuring the cleavage of [^14C]sphingomyelin. At 0, 10, 20, 30, 40, 50, and 60 minutes, cells were harvested, centrifuged, and lysed in buffer containing 0.1% Triton™ X-100, 25 mM Tris (pH 7.4), 5 mM EDTA, 1 mM phenylmethylsulfonyl fluoride (PMSF), and 2 μg each of chymostatin, leupeptin, antipain, and pepstatin A. 100 μl of a reaction mixture containing 50 mM Tris (pH 7.4), 5 mM MgCl2, 0.05% Triton™ X-100, 5 mM dithiothreitol (DTT) and 10 nmol [^14C]sphingomyelin (100,000 cpm) was added to 5–10 μl of cell lysate (100 μg protein). The basal activity of N-SMase was 2.7±0.1 nmol/mg protein/hr in MG63 cells and 0.67±0.1 nmol/mg protein/hr in CC cells. These levels were defined as 100% activity.

fibronectin = experiment: Immunocytochemical analysis of cells, fibronectin antibody (specificity control); details: lines harboring pU1/N-SMase vs pZeoSVLacZ vs untransfected cells
Protocol: Wild-type (WT) MG-63 cells and MG-63 cells transfected with LacZ constructs (L-3) and ribozyme expression constructs for the inhibition of N-SMase expression (CC) were analyzed by immunocytochemistry. The antibodies either recognized epitopes in fibronectin (control) or N-SMase. The analysis was performed in duplicates for the MG-63 cell line and the two mutant colonies.

B1: N-SMase ribozyme: U1 snRNA-derived hammerhead antisense ribozyme targeting N-SMase mRNA, expressed from vector pNSMRz; stably transfected MG63 clones CC and C-B (nucleic acid, listed as Homo sapiens)
chain: AUACUUACCUGGCAGGGGAGAUACCAUGAUCACGAAGGUGGUUUUCCCAGGGCGAGGCUUAUCCAUUGGCCUCCGGAUGUGCUGACCCCUGCGAUUUCCCCAAAUGUGGGAAACUCGACUGCAGAAUAUGUCAUCAUAUUGCCUGAUGAGUCCGUGAGGACGAAACCUCUUCACAUGAAAAAGUGGGGCUGCGUUCGCGCUUCCCCG
With B1 the “Acid SMase activity” value (A-SMase; MG-63 clone C-B (mutant)) was 2.2 nmol/mg protein/hr, the “Acid SMase activity” value (A-SMase; MG-63 clone CC (mutant)) was 2.1 nmol/mg protein/hr and the “Reduction in A-SMase activity” value (A-SMase) was “unchanged”. The “Reduction in A-SMase activity” value (A-SMase; listed as ribozyme) was “no discernable reduction”, the “Decline in viable cells over a wide range of TNF-α concentrations” value (MG-63 cells) was “no significant decline” and the “Level of N-SMase by western immunoblot densitometry” value (N-SMase [1]) was “greatly reduced”. The “N-SMase activity under cytokine stimulation” value (N-SMase [2]; ribozyme cells stimulated with TNF-α and Fas-L, sham-transfected cells 4.0) was 0.75 nmol/mg protein/hr, the “Change of N-SMase activity after addition of TNF-α” value (N-SMase [2]; ribozyme transfected cells, 0-60 min, FIG. 4A) was “no significant difference” and the “Basal activity of N-SMase” value (N-SMase [2]) was 0.67±0.1 nmol/mg protein/hr. For the same molecule, the “Basal activity of N-SMase” value (N-SMase [2]; listed as antisense ribozyme) was 0.67 nmol/mg protein/hr and the “Immunohistochemical staining with monoclonal antibody to fibronectin” value (fibronectin) was “No differences were observed”.
